Data: patent US12655197 (dated 2026)

Target: ProAgio
Experiment: SPR

B1: αVβ3 (receptor)
chain 1: FNLDVDSPAEYSGPEGSYFGFAVDFFVPSASSRMFLLVGAPKANTTQPGIVEGGQVLKCDWSSTRRCQPIEFDATGNRDYAKDDPLEFKSHQWFGASVRSKQDKILACAPLYHWRTEMKQEREPVGTCFLQDGTKTVEYAPCRSQDIDADGQGFCQGGFSIDFTKADRVLLGGPGSFYWQGQLISDQVAEIVSKYDPNVYSIKYNNQLATRTAQAIFDDSYLGYSVAVGDFNGDGIDDFVSGVPRAARTLGMVYIYDGKNMSSLYNFTGEQMAAYFGFSVAATDINGDDYADVFIGAPLFMDRGSDGKLQEVGQVSVSLQRASGDFQTTKLNGFEVFARFGSAIAPLGDLDQDGFNDIAIAAPYGGEDKKGIVYIFNGRSTGLNAVPSQILEGQWAARSMPPSFGYSMKGATDIDKNGYPDLIVGAFGVDRAILYRARPVITVNAGLEVYPSILNQDNKTCSLPGTALKVSCFNVRFCLKADGKGVLPRKLNFQVELLLDKLKQKGAIRRALFLYSRSPSHSKNMTISRGGLMQCEELIAYLRDESEFRDKLTPITIFMEYRLDYRTAADTTGLQPILNQFTPANISRQAHILLDCGEDNVCKPKLEVSVDSDQKKIYIGDDNPLTLIVKAQNQGEGAYEAELIVSIPLQADFIGVVRNNEALARLSCAFKTENQTRQVVCDLGNPMKAGTQLLAGLRFSVHQQSEMDTSVKFDLQIQSSNLFDKVSPVVSHKVDLAVLAAVEIRGVSSPDHVFLPIPNWEHKENPETEEDVGPVVQHIYELRNNGPSSFSKAMLHLQWPYKYNNNTLLYILHYDIDGPMNCTSDMEINPLRIKISSLQTTEKNDTVAGQGERDHLITKRDLALSEGDIHTLGCGVAQCLKIVCQVGRLDRGKSAILYVKSLLWTETFMNKENQNHSYSLKSSASFNVIEFPYKNLPIEDITNSTLVTTNVTWGIQPAPMPV
chain 2: GPNICTTRGVSSCQQCLAVSPMCAWCSDEALPLGSPRCDLKENLLKDNCAPESIEFPVSEARVLEDRPLSDKGSGDSSQVTQVSPQRIALRLRPDDSKNFSIQVRQVEDYPVDIYYLMDLSYSMKDDLWSIQNLGTKLATQMRKLTSNLRIGFGAFVDKPVSPYMYISPPEALENPCYDMKTTCLPMFGYKHVLTLTDQVTRFNEEVKKQSVSRNRDAPEGGFDAIMQATVCDEKIGWRNDASHLLVFTTDAKTHIALDGRLAGIVQPNDGQCHVGSDNHYSASTTMDYPSLGLMTEKLSQKNINLIFAVTENVVNLYQNYSELIPGTTVGVLSMDSSNVLQLIVDAYGKIRSKVELEVRDLPEELSLSFNATCLNNEVIPGLKSCMGLKIGDTVSFSIEAKVRGCPQEKEKSFTIKPVGFKDSLIVQVTFDCDCACQAQAEPNSHRCNNGNGTFECGVCRCGPGWLGSQCECSEEDYRPSQQDECSPREGQPVCSQRGECLCGQCVCHSSDFGKITGKYCECDDFSCVRYKGEMCSGHGQCSCGDCLCDSDWTGYYCNCTTRTDTCMSSNGLLCSGRGKCECGSCVCIQPGSYGDTCEKCPTCPDACTFKKECVECKKFDRGALHDENTCNRYCRDEIESVKELKDTGKDAVNCTYKNEDDCVVRFQYYEDSSGKSILYVVEEPECPKGPD
Binder B1 has a Kd of 0.12 nM.
